The target in assay [1] is CD3 on Jurkat luciferase reporter cells (UniProt P07766). Put plainly: flow cytometry of Jurkat_NFAT_Luc2P cells; reference value, printed in all three panels on the left. On the technique in general: A flow cytometer gives signals particle by particle.
Assay [2] has the same target. Put plainly: flow cytometry of Jurkat_NFAT_Luc2P cells, PE-A; fold over hIgG.
For assay [3] the target is unchanged. Nature of the assay: flow cytometry of Jurkat_NFAT_Luc2P cells, FITC-A; fold over hIgG.

In turn, hIgG (antibody) showed a Fold in assay [1] of 1.

Commercial CD3e(HiT3a) (antibody): the Fold in assay [2] is 58.

For mOKT3 (antibody), in assay [3], the Fold was determined as 45.

Source of the values: US20190309093A1.
